Source: patent publication US20050272090, “Nucleic acid binding of multi-zinc finger transcription factors” (published 2005)

T1: SIP1 full length in cells (Mus musculus) (UniProt Q9R0G7)
T1 sequence: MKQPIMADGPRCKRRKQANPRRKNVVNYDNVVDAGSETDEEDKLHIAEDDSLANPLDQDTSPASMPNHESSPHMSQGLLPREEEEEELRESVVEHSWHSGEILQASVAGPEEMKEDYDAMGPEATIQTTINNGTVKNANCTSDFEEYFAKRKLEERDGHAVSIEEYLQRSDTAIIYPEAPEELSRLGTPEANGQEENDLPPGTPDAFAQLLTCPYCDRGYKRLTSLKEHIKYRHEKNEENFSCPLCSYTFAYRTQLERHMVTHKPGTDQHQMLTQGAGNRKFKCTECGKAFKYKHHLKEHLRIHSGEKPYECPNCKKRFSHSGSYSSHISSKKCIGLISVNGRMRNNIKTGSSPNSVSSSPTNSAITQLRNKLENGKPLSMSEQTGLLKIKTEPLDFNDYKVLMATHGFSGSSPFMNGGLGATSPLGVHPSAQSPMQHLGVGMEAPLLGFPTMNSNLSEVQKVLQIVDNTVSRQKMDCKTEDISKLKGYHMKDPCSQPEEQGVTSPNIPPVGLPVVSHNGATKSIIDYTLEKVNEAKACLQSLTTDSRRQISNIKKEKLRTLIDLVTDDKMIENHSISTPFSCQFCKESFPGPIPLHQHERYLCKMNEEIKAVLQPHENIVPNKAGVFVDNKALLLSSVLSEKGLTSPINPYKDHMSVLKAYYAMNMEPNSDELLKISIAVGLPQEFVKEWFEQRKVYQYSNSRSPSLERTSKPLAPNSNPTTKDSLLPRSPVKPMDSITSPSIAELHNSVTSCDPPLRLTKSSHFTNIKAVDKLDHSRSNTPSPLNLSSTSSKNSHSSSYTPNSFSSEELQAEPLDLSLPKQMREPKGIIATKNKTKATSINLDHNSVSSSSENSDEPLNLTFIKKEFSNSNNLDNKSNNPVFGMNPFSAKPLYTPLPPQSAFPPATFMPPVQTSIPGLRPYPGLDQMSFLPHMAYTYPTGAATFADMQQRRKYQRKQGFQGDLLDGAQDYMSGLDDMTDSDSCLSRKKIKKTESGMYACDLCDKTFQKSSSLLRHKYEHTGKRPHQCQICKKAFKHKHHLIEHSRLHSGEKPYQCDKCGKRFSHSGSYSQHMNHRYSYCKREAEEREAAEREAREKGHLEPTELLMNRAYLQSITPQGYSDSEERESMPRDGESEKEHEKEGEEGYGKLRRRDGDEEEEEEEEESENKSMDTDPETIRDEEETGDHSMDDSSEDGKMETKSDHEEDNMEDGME

T2: SIP1 full length (SIP1FS) (Mus musculus, UniProt Q9R0G7 Q9R0G7:1-1215)
T2 sequence: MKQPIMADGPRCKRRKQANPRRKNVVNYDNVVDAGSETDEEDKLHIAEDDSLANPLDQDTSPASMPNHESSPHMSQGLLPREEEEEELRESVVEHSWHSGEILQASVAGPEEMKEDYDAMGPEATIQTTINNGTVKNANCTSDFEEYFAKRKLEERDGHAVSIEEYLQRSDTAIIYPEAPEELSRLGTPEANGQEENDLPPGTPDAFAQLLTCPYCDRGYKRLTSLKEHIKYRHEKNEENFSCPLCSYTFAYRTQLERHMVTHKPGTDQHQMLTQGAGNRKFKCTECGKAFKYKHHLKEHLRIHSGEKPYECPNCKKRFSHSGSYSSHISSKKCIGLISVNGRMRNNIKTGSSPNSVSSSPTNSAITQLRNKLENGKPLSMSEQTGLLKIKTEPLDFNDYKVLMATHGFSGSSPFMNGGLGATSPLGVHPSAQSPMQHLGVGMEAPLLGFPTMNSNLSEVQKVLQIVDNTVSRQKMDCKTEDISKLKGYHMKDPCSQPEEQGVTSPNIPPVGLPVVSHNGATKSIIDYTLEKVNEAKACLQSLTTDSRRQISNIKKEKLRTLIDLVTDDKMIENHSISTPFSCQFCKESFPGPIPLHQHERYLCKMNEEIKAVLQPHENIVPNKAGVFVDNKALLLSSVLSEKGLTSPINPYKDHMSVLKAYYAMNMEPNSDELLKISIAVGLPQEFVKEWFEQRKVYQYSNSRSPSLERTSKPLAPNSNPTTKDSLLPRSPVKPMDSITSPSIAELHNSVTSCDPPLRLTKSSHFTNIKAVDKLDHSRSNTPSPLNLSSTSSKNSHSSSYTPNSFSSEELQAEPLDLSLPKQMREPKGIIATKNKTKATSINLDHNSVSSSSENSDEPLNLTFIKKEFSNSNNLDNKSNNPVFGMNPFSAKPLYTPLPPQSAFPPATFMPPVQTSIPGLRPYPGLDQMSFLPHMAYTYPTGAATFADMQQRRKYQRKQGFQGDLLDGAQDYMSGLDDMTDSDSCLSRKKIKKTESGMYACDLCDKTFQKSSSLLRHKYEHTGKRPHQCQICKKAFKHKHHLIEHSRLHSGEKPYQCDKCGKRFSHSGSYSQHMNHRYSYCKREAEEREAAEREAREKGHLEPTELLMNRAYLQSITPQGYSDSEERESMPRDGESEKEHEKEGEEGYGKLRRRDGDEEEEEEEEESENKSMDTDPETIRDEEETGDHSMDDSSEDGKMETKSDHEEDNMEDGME


Columns and labels:
[1] = molecular target: T1, SIP1 full length in cells (Mus musculus); assay: cell_activity; conditions: luciferase reporter in NMe, MDCK, MCF7/AZ
[2] = molecular target: T2, SIP1 full length (SIP1FS); assay: EMSA; affinity relative to SIP1CZF, estimated from expression levels; conditions: tags: N-terminal Myc6 (pCS3), COS1 cell extract; label: 32P
Method: The Xbra-WT oligonucleotide covers the region from −344 to −294 of the Xbra2 promoter (16). The region between −412 to −352 of the α4-integrin promoter is present within the α4I-WT oligonucleotide (26). The Ecad-WT probe contains the region between −86 to −17 of the human Ecad promoter (2). Double-stranded oligonucleotides were labeled with [³²P]-γ-ATP and T4 polynucleotide kinase (New England Biolabs). Total cell extracts were prepared from COS1 cells (25) transfected with different pCS3 vectors allowing synthesis of full length SIP1, full length δEF1, and different mutant forms of SIP1 (25), or co-production of equal amounts of Myc-tagged SP1 and FLAG-tagged SIP1. GST-SIP1 fusion proteins were purified from E. coli extract using the GST purification module (Pharmacia), and tested in gel retardation. The DNA binding assay (20 μl) was performed at 25° C., with 1 μg of COS1 total cell protein, 1 μg of poly dI-dC, 10 pg of ³²P-labeled double-stranded oligonucleotide (approx. 10⁴ Cerenkov counts) in the δEF1 binding buffer described previously (30). For supershift experiments, the extracts were incubated with anti-Myc (Santa Cruz) or anti-FLAG (Kodak) antibodies. For competition, an excess of unlabeled double-stranded oligonucleotides was added together with the labeled probe. […]

| Molecule | activity (% decrease of promoter activity) [1] | binding signal [2] [fold] |
| --- | --- | --- |
| E-cadherin promoter reporter | 80 | – |
| Xbra-WT (dsDNA) DNA 1: ATCCAGGCCACCTAAAATATAGAATGATAAAGTGACCAGGTGTCAGTTCT DNA 2: AGAACTGACACCTGGTCACTTTATCATTCTATATTTTAGGTGGCCTGGAT | – | ≥ 50 |
